We go through 58 substances from US11208452B2.

This experiment concerns the target human insulin receptor IR-A (solubilised holoreceptor) (human) (UniProt P06213). The experiment can be described thus: competition SPA: displacement of [125I-A14Y]-human insulin from solubilised human IR-A, relative to human insulin standard. (Displacement assays read how much labelled ligand stays bound in the presence of the test substance.)

Substance “A14E, A21G(GAPQ)50, B25H, desB30 human insulin (from UniProt P01308) (ligand)” yielded a Receptor binding (hIRA) SPA, sup % relative to HI (% relative to HI) of 3.13. As for “A14E, A21G(GEHP)50, B25H, desB30 human insulin (from UniProt P01308) (ligand)”, the Receptor binding (hIRA) SPA, sup % relative to HI (% relative to HI) is 3.1. Under “A14E, A21G(GEPH)50, B25H, desB30 human insulin (from UniProt P01308) (ligand)” stands 3.3. Under “A14E, A21G(GQAP)50, B25H, desB30 human insulin (from UniProt P01308) (ligand)” stands 3.15; under “A14E, A21G(GQAP)75, B25H, desB30 human insulin (from UniProt P01308) (ligand)”, 2.41.

“A14E, A21G(GQAP)150, B25H, desB30 human insulin (from UniProt P01308) (ligand)” returned a Receptor binding (hIRA) SPA, sup % relative to HI (% relative to HI) of 2.1.

“A14E, A21G(GQEP)50, B25H, desB30 human insulin (from UniProt P01308) (ligand)”: the Receptor binding (hIRA) SPA, sup % relative to HI (% relative to HI) turned out to be 3. Substance “A21G(GAQ)67, desB30 human insulin (from UniProt P01308) (ligand)” came in with a Receptor binding (hIRA) SPA, sup % relative to HI (% relative to HI) of 6.99. Under “A21G(GAQP)50, desB30 human insulin (from UniProt P01308) (ligand)” stands 4.66. “A21G(GEH)67, desB30 human insulin (from UniProt P01308) (ligand)” gave a Receptor binding (hIRA) SPA, sup % relative to HI (% relative to HI) of 4.85. Under “A21G(GEPQ)50, desB30 human insulin (from UniProt P01308) (ligand)” stands 8.24; under “A21G(GEQ)67, desB30 human insulin (from UniProt P01308) (ligand)”, 8.48; under “A21G(GEQH)50, desB30 human insulin (from UniProt P01308) (ligand)”, 7.77.

On to “A21G(GEQP)50, desB30 human insulin (from UniProt P01308) (ligand)”, for which the Receptor binding (hIRA) SPA, sup % relative to HI (% relative to HI) came to 9.04. Under “A21G(GHEP)50, desB30 human insulin (from UniProt P01308) (ligand)” stands 4.67; under “A21G(GHEQ)50, desB30 human insulin (from UniProt P01308) (ligand)”, 6.7; under “A21G(GHPE)50, desB30 human insulin (from UniProt P01308) (ligand)”, 3.47. Under “A21G(GHQE)50, desB30 human insulin (from UniProt P01308) (ligand)” stands 9.41; under “A21G(GPAQ)50, desB30 human insulin (from UniProt P01308) (ligand)”, 6.5. In turn, “A21G(GPEH)50, desB30 human insulin (from UniProt P01308) (ligand)” registered a Receptor binding (hIRA) SPA, sup % relative to HI (% relative to HI) of 10.1. Under “A21G(GPEQ)50, desB30 human insulin (from UniProt P01308) (ligand)” stands 8.18; under “A21G(GPHE)50, desB30 human insulin (from UniProt P01308) (ligand)”, 7.85. Under “A21G(GPQA)50, desB30 human insulin (from UniProt P01308) (ligand)” stands 5.05; under “A21G(GPQE)50, desB30 human insulin (from UniProt P01308) (ligand)”, 6.53. Under “A21G(GQA)67, desB30 human insulin (from UniProt P01308) (ligand)” stands 4.11; under “A21G(GQAP)31, desB30 human insulin (from UniProt P01308) (ligand)”, 4.55; under “A21G(GQAP)37, desB30 human insulin (from UniProt P01308) (ligand)”, 5.33.

As for “A21G(GQAP)44, desB30 human insulin (from UniProt P01308) (ligand)”, the Receptor binding (hIRA) SPA, sup % relative to HI (% relative to HI) worked out at 6.34.

“A21G(GQAP)50, desB30 human insulin (from UniProt P01308) (ligand)” displayed a Receptor binding (hIRA) SPA, sup % relative to HI (% relative to HI) of 4.56. Under “A21G(GQAP)56, desB30 human insulin (from UniProt P01308) (ligand)” stands 3.49. Next, “A21G(GQAP)62, desB30 human insulin (from UniProt P01308) (ligand)”: 4.45; “A21G(GQAP)69, desB30 human insulin (from UniProt P01308) (ligand)”: 4.2; “A21G(GQAP)75, desB30 human insulin (from UniProt P01308) (ligand)”: 4.19.

In turn, “A21G(GQAP)100, desB30 human insulin (from UniProt P01308) (ligand)” came in with a Receptor binding (hIRA) SPA, sup % relative to HI (% relative to HI) of 3.19. Under “A21G(GQAP)125, desB30 human insulin (from UniProt P01308) (ligand)” stands 2.65; under “A21G(GQAP)150, desB30 human insulin (from UniProt P01308) (ligand)”, 2.87; under “A21G(GQE)67, desB30 human insulin (from UniProt P01308) (ligand)”, 6.6. As to “A21G(GQEH)50, desB30 human insulin (from UniProt P01308) (ligand)”, the Receptor binding (hIRA) SPA, sup % relative to HI (% relative to HI) was determined as 5.99. For the substance “A21G(GQEPGQHP)25, desB30 human insulin (from UniProt P01308) (ligand)”, the Receptor binding (hIRA) SPA, sup % relative to HI (% relative to HI) came out at 4.06. Next, “A21G(GQHE)50, desB30 human insulin (from UniProt P01308) (ligand)”: 7.83; “A21G(GQPA)50, desB30 human insulin (from UniProt P01308) (ligand)”: 4.26.

Substance “A21G(GQPE)50, desB30 human insulin (from UniProt P01308) (ligand)” came in with a Receptor binding (hIRA) SPA, sup % relative to HI (% relative to HI) of 4.09.

For the substance “A21G, A22A, A23P, A24Q(GAPQ)49, desB30 human insulin (from UniProt P01308) (ligand)”, the Receptor binding (hIRA) SPA, sup % relative to HI (% relative to HI) was 9.98. Next, “A21G, A22A, A23Q, A24P(GAQP)37, desB30 human insulin (from UniProt P01308) (ligand)”: 5.71.

“A21G, A22A, A23Q, A24P(GAQP)49, desB30 human insulin (from UniProt P01308) (ligand)” returned a Receptor binding (hIRA) SPA, sup % relative to HI (% relative to HI) of 4.38. Under “A21G, A22A, A23Q, A24P(GAQP)62, desB30 human insulin (from UniProt P01308) (ligand)” stands 3.89; under “A21G, A22P, A23A, A24Q(GPAQ)49, desB30 human insulin (from UniProt P01308) (ligand)”, 5.7.

For “A21G, A22P, A23Q, A24A(GPQA)49, desB30 human insulin (from UniProt P01308) (ligand)”, the Receptor binding (hIRA) SPA, sup % relative to HI (% relative to HI) was determined as 5.26.

In turn, “A21G, A22Q, A23A, A24P(GQAP)49, desB30 human insulin (from UniProt P01308) (ligand)” came in with a Receptor binding (hIRA) SPA, sup % relative to HI (% relative to HI) of 4.92. Next, “A21G, A22Q, A23P(GQP)66, desB30 human insulin (from UniProt P01308) (ligand)”: 0.08; “A21G, A22Q, A23P, A24A(GQPA)49, desB30 human insulin (from UniProt P01308) (ligand)”: 5.53; “A21G, B1F(GQAP)50, desB30 human insulin (from UniProt P01308) (ligand)”: 8.38.

“A21G, B1F(GQAP)100, desB30 human insulin (from UniProt P01308) (ligand)” registered a Receptor binding (hIRA) SPA, sup % relative to HI (% relative to HI) of 4.98. Regarding “A21Q(GAPQ)50, desB30 human insulin (from UniProt P01308) (ligand)”, the Receptor binding (hIRA) SPA, sup % relative to HI (% relative to HI) is 7.52. Under “A21Q(GEHP)50, desB30 human insulin (from UniProt P01308) (ligand)” stands 5.41; under “A21Q(GEPH)50, desB30 human insulin (from UniProt P01308) (ligand)”, 5.09. Next, “A21Q(GQAP)50, desB30 human insulin (from UniProt P01308) (ligand)”: 6.55; “A21Q(GQEP)50, desB30 human insulin (from UniProt P01308) (ligand)”: 8.54.
